T1: TJP3_3, O95049
T1 sequence (O95049 375-456, limits assumed, looked up): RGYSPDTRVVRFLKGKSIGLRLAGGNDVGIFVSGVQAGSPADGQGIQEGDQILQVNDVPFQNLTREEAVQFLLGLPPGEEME

T2: DFNB31_1, Q9P202
T2 sequence (Q9P202 135-233, limits assumed, looked up): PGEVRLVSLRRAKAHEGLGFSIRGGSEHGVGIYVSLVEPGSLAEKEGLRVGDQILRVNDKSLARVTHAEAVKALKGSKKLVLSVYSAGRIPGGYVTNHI

T3: SYNJ2BP, P57105
T3 sequence (P57105 8-110, limits assumed, looked up): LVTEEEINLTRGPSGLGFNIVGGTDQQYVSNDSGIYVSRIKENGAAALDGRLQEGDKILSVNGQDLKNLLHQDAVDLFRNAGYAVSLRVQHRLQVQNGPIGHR

T4: RHPN1, Q8TCX5
T4 sequence (Q8TCX5 508-602, limits assumed, looked up): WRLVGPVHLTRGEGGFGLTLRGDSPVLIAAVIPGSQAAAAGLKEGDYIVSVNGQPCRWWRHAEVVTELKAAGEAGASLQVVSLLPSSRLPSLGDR

T5: SNTG2, Q9NY99
T5 sequence (Q9NY99 68-166, limits assumed, looked up): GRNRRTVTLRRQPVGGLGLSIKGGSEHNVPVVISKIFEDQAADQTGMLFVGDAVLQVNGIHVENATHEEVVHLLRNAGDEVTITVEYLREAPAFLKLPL

T6: MPDZ_12, O75970
T6 sequence (O75970 1857-1958, limits assumed, looked up): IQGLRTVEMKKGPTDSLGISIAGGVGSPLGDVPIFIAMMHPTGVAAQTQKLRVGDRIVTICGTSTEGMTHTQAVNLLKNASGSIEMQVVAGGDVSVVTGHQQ

T7: LIN7C, Q9NUP9
T7 sequence (Q9NUP9 88-185, limits assumed, looked up): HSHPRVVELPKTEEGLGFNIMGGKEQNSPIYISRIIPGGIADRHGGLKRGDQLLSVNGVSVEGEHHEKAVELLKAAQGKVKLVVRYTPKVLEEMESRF

T8: SHANK1, Q9Y566
T8 sequence (Q9Y566 658-767, limits assumed, looked up): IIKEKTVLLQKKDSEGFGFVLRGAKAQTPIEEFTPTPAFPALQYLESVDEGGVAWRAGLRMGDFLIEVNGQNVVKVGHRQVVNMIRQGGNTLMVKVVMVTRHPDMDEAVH

T9: LRRC7, Q96NW7
T9 sequence (Q96NW7 1440-1537, limits assumed, looked up): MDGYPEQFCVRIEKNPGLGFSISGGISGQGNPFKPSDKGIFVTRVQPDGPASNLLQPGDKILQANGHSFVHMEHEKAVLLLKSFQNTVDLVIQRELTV


Key:
Assay in all cases: holdup assay
Set-up in all cases: key: below the threshold = too weak to quantify, mostly under pKd 3.1 to 4
Conditions in all cases: plain residues with an end cap or a label only (N-terminal biotin on a linker: ado-ado)
DLG4_2, P78352 = biological target: DLG4_2, P78352
TJP3_3, O95049 = biological target: T1, TJP3_3, O95049
DFNB31_1, Q9P202 = biological target: T2, DFNB31_1, Q9P202
SYNJ2BP, P57105 = biological target: T3, SYNJ2BP, P57105
HTRA2, O43464 = biological target: HTRA2, O43464
PICK1, Q9NRD5 = biological target: PICK1, Q9NRD5
PDZRN4_1, Q6ZMN7 = biological target: PDZRN4_1, Q6ZMN7
RHPN1, Q8TCX5 = biological target: T4, RHPN1, Q8TCX5
DLG1_2, Q12959 = biological target: DLG1_2, Q12959
LNX1_1, Q8TBB1 = biological target: LNX1_1, Q8TBB1
SNTG2, Q9NY99 = biological target: T5, SNTG2, Q9NY99
FRMPD2_3, Q68DX3 = biological target: FRMPD2_3, Q68DX3
IL16_3, Q14005 = biological target: IL16_3, Q14005
Inadl_8, Q8NI35 = biological target: Inadl_8, Q8NI35
MPDZ_12, O75970 = biological target: T6, MPDZ_12, O75970
LIN7C, Q9NUP9 = biological target: T7, LIN7C, Q9NUP9
FRMPD3, Q5JV73 = biological target: FRMPD3, Q5JV73
TJP2_1, Q9UDY2 = biological target: TJP2_1, Q9UDY2
SHANK1, Q9Y566 = biological target: T8, SHANK1, Q9Y566
Inadl_5, Q8NI35 = biological target: Inadl_5, Q8NI35
SCRIB_2, Q14160 = biological target: SCRIB_2, Q14160
FRMPD4, Q14CM0 = biological target: FRMPD4, Q14CM0
LRRC7, Q96NW7 = biological target: T9, LRRC7, Q96NW7
Inadl_10, Q8NI35 = biological target: Inadl_10, Q8NI35
NHERF4_1, Q86UT5-2 = biological target: NHERF4_1, Q86UT5-2
MAGI3_2, Q5TCQ9 = biological target: MAGI3_2, Q5TCQ9
FRMPD2_1, Q68DX3 = biological target: FRMPD2_1, Q68DX3
MAGI1_1, Q96QZ7 = biological target: MAGI1_1, Q96QZ7
Chain of MAGI1_1, Q96QZ7 (Q96QZ7 1-106): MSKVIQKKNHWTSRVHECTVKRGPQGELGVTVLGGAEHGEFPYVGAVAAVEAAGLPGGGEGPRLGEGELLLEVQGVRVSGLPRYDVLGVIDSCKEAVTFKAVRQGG

Chain of PICK1, Q9NRD5 (Q9NRD5 17-115): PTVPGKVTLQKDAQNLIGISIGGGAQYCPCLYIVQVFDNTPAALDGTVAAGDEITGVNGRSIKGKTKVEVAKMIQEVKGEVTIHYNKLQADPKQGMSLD
Chain of DLG4_2, P78352 (P78352 155-259): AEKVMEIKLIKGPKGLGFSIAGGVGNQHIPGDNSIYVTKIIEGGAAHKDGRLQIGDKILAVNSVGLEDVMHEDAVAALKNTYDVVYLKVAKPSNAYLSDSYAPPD
Chain of FRMPD2_1, Q68DX3 (Q68DX3 770-861): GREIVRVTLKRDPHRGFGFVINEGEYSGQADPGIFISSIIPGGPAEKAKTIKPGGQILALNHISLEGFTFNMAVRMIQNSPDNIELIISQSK
Chain of Inadl_5, Q8NI35 (Q8NI35 673-780): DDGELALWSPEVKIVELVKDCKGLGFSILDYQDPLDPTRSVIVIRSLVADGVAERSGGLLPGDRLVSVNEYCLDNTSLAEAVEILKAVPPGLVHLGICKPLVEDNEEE
Chain of FRMPD2_3, Q68DX3 (Q68DX3 1073-1166): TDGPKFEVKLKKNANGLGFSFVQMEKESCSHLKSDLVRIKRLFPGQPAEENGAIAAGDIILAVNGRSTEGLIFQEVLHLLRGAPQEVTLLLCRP
Chain of TJP2_1, Q9UDY2 (Q9UDY2 24-128): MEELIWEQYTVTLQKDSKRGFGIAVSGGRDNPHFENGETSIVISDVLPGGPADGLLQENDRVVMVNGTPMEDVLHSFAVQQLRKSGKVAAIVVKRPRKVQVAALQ
Chain of HTRA2, O43464 (O43464 355-458): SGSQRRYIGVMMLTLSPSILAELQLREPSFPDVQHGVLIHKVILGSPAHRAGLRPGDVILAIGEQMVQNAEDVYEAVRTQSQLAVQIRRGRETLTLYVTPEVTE
Chain of FRMPD3, Q5JV73 (Q5JV73 12-100): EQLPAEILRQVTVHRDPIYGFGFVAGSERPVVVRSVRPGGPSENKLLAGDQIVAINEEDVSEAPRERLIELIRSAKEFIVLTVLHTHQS
Chain of FRMPD4, Q14CM0 (Q14CM0 67-160): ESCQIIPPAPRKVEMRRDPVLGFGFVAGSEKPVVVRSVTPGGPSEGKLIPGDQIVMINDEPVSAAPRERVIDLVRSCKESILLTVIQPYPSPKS
Chain of PDZRN4_1, Q6ZMN7 (Q6ZMN7 213-318): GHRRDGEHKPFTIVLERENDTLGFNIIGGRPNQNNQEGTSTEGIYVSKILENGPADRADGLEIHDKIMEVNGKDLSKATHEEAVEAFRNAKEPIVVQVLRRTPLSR
Chain of IL16_3, Q14005 (Q14005 1107-1207): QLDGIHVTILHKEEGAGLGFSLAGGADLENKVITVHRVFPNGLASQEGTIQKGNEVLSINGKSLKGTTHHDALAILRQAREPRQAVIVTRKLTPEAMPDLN
Chain of Inadl_10, Q8NI35 (Q8NI35 1673-1763): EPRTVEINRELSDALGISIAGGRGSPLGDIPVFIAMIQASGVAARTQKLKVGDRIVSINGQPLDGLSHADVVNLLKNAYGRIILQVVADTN
Chain of Inadl_8, Q8NI35 (Q8NI35 1425-1530): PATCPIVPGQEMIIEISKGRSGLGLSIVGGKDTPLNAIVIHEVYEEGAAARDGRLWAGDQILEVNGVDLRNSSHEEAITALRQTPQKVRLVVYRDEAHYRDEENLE
Chain of LNX1_1, Q8TBB1 (Q8TBB1 261-371): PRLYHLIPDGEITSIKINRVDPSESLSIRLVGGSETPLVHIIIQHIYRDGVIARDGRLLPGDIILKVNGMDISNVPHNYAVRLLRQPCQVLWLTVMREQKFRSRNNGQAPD
Chain of DLG1_2, Q12959 (Q12959 314-412): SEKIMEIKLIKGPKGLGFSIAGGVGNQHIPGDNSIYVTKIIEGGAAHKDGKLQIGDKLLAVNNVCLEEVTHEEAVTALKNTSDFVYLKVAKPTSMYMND
Chain of NHERF4_1, Q86UT5-2 (Q86UT5 other isoform, or with tags, fused parts or gaps): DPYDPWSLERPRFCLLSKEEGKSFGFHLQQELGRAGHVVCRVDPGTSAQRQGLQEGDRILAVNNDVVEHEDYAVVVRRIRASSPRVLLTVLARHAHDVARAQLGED
Chain of SCRIB_2, Q14160 (Q14160 857-960): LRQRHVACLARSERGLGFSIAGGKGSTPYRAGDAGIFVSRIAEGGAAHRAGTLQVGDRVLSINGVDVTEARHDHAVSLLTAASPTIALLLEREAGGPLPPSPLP
Chain of MAGI3_2, Q5TCQ9 (Q5TCQ9 398-503): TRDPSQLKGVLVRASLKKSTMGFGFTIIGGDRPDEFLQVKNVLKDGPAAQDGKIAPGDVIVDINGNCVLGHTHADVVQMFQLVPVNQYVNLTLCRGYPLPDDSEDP

Binder | pKd (DLG4_2, P78352) | pKd (TJP3_3, O95049) | pKd (DFNB31_1, Q9P202) | pKd (SYNJ2BP, P57105) | pKd (HTRA2, O43464) | pKd (PICK1, Q9NRD5) | pKd (PDZRN4_1, Q6ZMN7) | pKd (RHPN1, Q8TCX5) | pKd (DLG1_2, Q12959) | pKd (LNX1_1, Q8TBB1) | pKd (SNTG2, Q9NY99) | pKd (FRMPD2_3, Q68DX3) | pKd (IL16_3, Q14005) | pKd (Inadl_8, Q8NI35) | pKd (MPDZ_12, O75970) | pKd (LIN7C, Q9NUP9) | pKd (FRMPD3, Q5JV73) | pKd (TJP2_1, Q9UDY2) | pKd (SHANK1, Q9Y566) | pKd (Inadl_5, Q8NI35) | further results
ARESQKVSHV [FAM110B, Q8TC76] | 4.53 | below the threshold | 3.62 | 4.31 | below the threshold | below the threshold | below the threshold | 4.72 | 4.68 | 3.97 | 4.08 | below the threshold | below the threshold | 4.8 | below the threshold | below the threshold | below the threshold | 3.87 | below the threshold | below the threshold | pKd (SCRIB_2, Q14160): below the threshold; pKd (FRMPD4, Q14CM0): below the threshold; pKd (LRRC7, Q96NW7): below the threshold; pKd (Inadl_10, Q8NI35): below the threshold; pKd (NHERF4_1, Q86UT5-2): 3.74; pKd (MAGI3_2, Q5TCQ9): 5.28; pKd (FRMPD2_1, Q68DX3): below the threshold; pKd (MAGI1_1, Q96QZ7): below the threshold
DDASLPVSDV [PLEKHA1, Q9HB21] | below the threshold | below the threshold | 3.75 | 3.59 | below the threshold | below the threshold | below the threshold | 4.46 | below the threshold | 4.91 | 4.48 | below the threshold | below the threshold | 4.94 | below the threshold | 4.01 | below the threshold | below the threshold | below the threshold | below the threshold | pKd (SCRIB_2, Q14160): below the threshold; pKd (FRMPD4, Q14CM0): below the threshold; pKd (LRRC7, Q96NW7): below the threshold; pKd (Inadl_10, Q8NI35): below the threshold; pKd (NHERF4_1, Q86UT5-2): below the threshold; pKd (MAGI3_2, Q5TCQ9): below the threshold; pKd (FRMPD2_1, Q68DX3): below the threshold; pKd (MAGI1_1, Q96QZ7): below the threshold
PPGKHLVTEV [KCNA7, Q96RP8] | 5.11 | below the threshold | below the threshold | 4.86 | below the threshold | below the threshold | below the threshold | 4.37 | 5.1 | 4.22 | below the threshold | below the threshold | below the threshold | 3.98 | 3.88 | below the threshold | below the threshold | 3.6 | 3.71 | below the threshold | pKd (SCRIB_2, Q14160): 4.08; pKd (FRMPD4, Q14CM0): below the threshold; pKd (LRRC7, Q96NW7): 3.96; pKd (Inadl_10, Q8NI35): 3.7; pKd (NHERF4_1, Q86UT5-2): 3.94; pKd (MAGI3_2, Q5TCQ9): 4.71; pKd (FRMPD2_1, Q68DX3): below the threshold; pKd (MAGI1_1, Q96QZ7): below the threshold
SPDRDRESIV [SCN5A, Q14524] | 4.73 | below the threshold | 3.58 | 4.47 | below the threshold | 4.21 | 3.95 | 4.89 | 4.86 | 3.88 | 4.69 | 3.48 | below the threshold | 3.85 | below the threshold | 4.12 | below the threshold | below the threshold | below the threshold | below the threshold | pKd (SCRIB_2, Q14160): below the threshold; pKd (FRMPD4, Q14CM0): below the threshold; pKd (LRRC7, Q96NW7): 3.48; pKd (Inadl_10, Q8NI35): below the threshold; pKd (NHERF4_1, Q86UT5-2): below the threshold; pKd (MAGI3_2, Q5TCQ9): 4.9; pKd (FRMPD2_1, Q68DX3): below the threshold; pKd (MAGI1_1, Q96QZ7): below the threshold
